Data from patent US7101851 (dated 2006).
Bridges are numbered along the chain shown (N, C = ends). Where no end group is shown, it is not given here.

T1: alpha subunit of the human FcεRI receptor (IgE high affinity receptor), expressed on Chinese hamster ovary … (human, UniProt P12319 26-257)
T1 construct: whole, on cells; also called CHO FcεRI+ cells; FcεRIα
T1 sequence (looked up): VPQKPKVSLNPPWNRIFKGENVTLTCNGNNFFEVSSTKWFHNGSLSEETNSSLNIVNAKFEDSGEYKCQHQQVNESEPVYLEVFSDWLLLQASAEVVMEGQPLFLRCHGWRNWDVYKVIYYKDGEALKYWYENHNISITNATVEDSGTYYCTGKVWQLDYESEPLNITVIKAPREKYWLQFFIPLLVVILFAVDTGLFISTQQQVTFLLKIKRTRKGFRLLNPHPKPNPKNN


Target: T1, alpha subunit of the human FcεRI …
Test: inhibition of 125I-IgE binding to CHO cells expressing human FcεRI alpha; competitor IgE
Protocol: To determine the ability of peptides to inhibit IgE binding to FcεRI, a cell-based binding assay was used with radiolabeled IgE. Chinese hamster ovary cells expressing the alpha subunit of the human FcεRI receptor were cultured overnight in Falcon 96 well microtiter plates at a concentration of 5 ×10^4 cells per well. The following day the cells were rinsed three times with PBS and then once with F12/DMEM. Peptide stocks were reconstituted in 100 mM Hepes buffered water, pH 7.2, at a concentration of 5 mg/mL. Working concentrations of the peptide were diluted in assay buffer (see below). 75 uL of a desired concentration of peptide was added to the top row of a separate 96 well microtiter plate and serially diluted 1:3 in 50 uL of the assay buffer (F12/DMEM, 1% BSA, 0.05% NaN_3 and 0.025 mM Hepes pH 7.2). Starting concentrations ranged from 50–500 uM. Next, 50 uL of the diluted peptide was transferred to the 96 microtiter well plate containing a monolayer of CHO FcεRI+ cells. […] Cells were […]

Binder | IC50 [nM]
Ac-VQCPHFCYFGAELCPDVCYV-NH2 (disulfide 7-14, 3-18; SMILES CC(=O)N[C@H](C(=O)N[C@@H](CCC(N)=O)C(=O)N[C@H]1CSSC[C@@H](C(=O)N[C@@H](Cc2ccc(O)cc2)C(=O)N[C@H](C(N)=O)C(C)C)NC(=O)[C@H](C(C)C)NC(=O)[C@H](CC(=O)O)NC(=O)[C@@H]2CCCN2C(=O)[C@@H]2CSSC[C@H](NC(=O)[C@H](Cc3ccccc3)NC(=O)[C@H](Cc3c[nH]cn3)NC(=O)[C@@H]3CCCN3C1=O)C(=O)N[C@@H](Cc1ccc(O)cc1)C(=O)N[C@@H](Cc1ccccc1)C(=O)NCC(=O)N[C@@H](C)C(=O)N[C@@H](CCC(=O)O)C(=O)N[C@@H](CC(C)C)C(=O)N2)C(C)C) [IGE168] | 260
CPHFCYFGAELCPDVCY-NH2 (not fully specified (bridges); cysteine pairing not given here) [IGE170] | 200
Ac-CPHFCYFGAELCPDVCY-NH2 (not fully specified (bridges); cysteine pairing not given here) [IGE171] | 290
Ac-VQCPHFCYELDYELCPDVCYV-NH2 (not fully specified (bridges); cysteine pairing not given here) [IGE179] | 220
VQCPHFCYELFSRLCPDVCYV-NH2 (disulfide (positions not given here); also: two disulfides, pairing not settled) [IGE182] | 80
VQCPHFCYDASRLCPDVCYV-NH2 (disulfide (positions not given here); not fully specified (bridges); printed as VQCPHFCYDASRLCPDVCYV-nh2) [IGE183] | 30
VQCPHFCYDASELCPDVCYV-NH2 (disulfide (positions not given here); not fully specified (bridges); printed as VQCPHFCYDASELCPDVCYV-nh2) [IGE196] | 90
VQCPDFCYDASRLCPDVCYV-NH2 (disulfide 7-14, 3-18; N-terminus assumed; SMILES CC(C)C[C@@H]1NC(=O)[C@H](CCCNC(=N)N)NC(=O)[C@H](CO)NC(=O)[C@H](C)NC(=O)[C@H](CC(=O)O)NC(=O)[C@H](Cc2ccc(O)cc2)NC(=O)[C@@H]2CSSC[C@H](NC1=O)C(=O)N1CCC[C@H]1C(=O)N[C@@H](CC(=O)O)C(=O)N[C@@H](C(C)C)C(=O)N[C@H](C(=O)N[C@@H](Cc1ccc(O)cc1)C(=O)N[C@H](C(N)=O)C(C)C)CSSC[C@H](NC(=O)[C@H](CCC(N)=O)NC(=O)[C@@H](N)C(C)C)C(=O)N1CCC[C@H]1C(=O)N[C@@H](CC(=O)O)C(=O)N[C@@H](Cc1ccccc1)C(=O)N2) [IGE197] | 120
VQCPHFCYDYELCPDVCYV-NH2 (disulfide 7-13, 3-17; N-terminus assumed; SMILES CC(C)C[C@@H]1NC(=O)[C@H](CCC(=O)O)NC(=O)[C@H](Cc2ccc(O)cc2)NC(=O)[C@H](CC(=O)O)NC(=O)[C@H](Cc2ccc(O)cc2)NC(=O)[C@@H]2CSSC[C@H](NC1=O)C(=O)N1CCC[C@H]1C(=O)N[C@@H](CC(=O)O)C(=O)N[C@@H](C(C)C)C(=O)N[C@H](C(=O)N[C@@H](Cc1ccc(O)cc1)C(=O)N[C@H](C(N)=O)C(C)C)CSSC[C@H](NC(=O)[C@H](CCC(N)=O)NC(=O)[C@@H](N)C(C)C)C(=O)N1CCC[C@H]1C(=O)N[C@@H](Cc1c[nH]cn1)C(=O)N[C@@H](Cc1ccccc1)C(=O)N2) [IGE184] | 110
